This is an account of results in patent US9677053B2, “Laccases for bio-bleaching” (BASF ENZYMES LLC, priority 2006, dated 2017).

The nature of series [1]: mediator ability to delignify pulp.
Series [2] is described as follows: oxidation of Mediator 71 at pH 8, oxygen electrode. Format: biochemical. The note with it: for specific activity, oxidation of Mediator 71: 1 mM Mediator 71, pH 8, room temperature, laccase preparation, not purified protein. On the procedure: BD22449 (SEQ ID NO:2), BD22865 (SEQ ID NO:4) and Trametes versicolor laccase (used as a control) were assayed for their ability to oxidize Mediator 71 at pH 8 using oxygen electrode. Briefly, 50 μL of BD22449 or BD22865 culture supernatant isolated as described in Example 2 was incubated with 950 μL Mediator 71 dissolved in Britton-Robinson Buffer to a final concentration of 1 mM at pH 8. The consumption of oxygen was measured at room temperature in an OXYTHERM™ oxygen measurement instrument over time as described above.

The nature of series [3]: pHopt for oxidation of Mediator 71. Type of series: biochemical. Particulars: 1 mM Mediator 71, pH 5-10, room temperature, 20 min. On the procedure: Next, the pHopt for the catalysis of the oxidation of Mediator 71 was determined for each laccase. […] of BD22449 or BD22865 culture supernatant isolated as described in Example 2 was incubated with […] Mediator 71 dissolved in Britton-Robinson Buffer to a final concentration of 1 mM at pH 5, 6, 7, 8, 9, or 10. The consumption of oxygen over 20 min at room temperature was determined in an OXYTHERM™ oxygen measurement instrument over time as described above. […] By contrast, the Trametes laccase had no activity on Mediator 71 at pH 7 or above.

Series [4] can be described thus: thermotolerance, residual activity on ABTS. Type of series: biochemical. The note with it: 1 hour. On the procedure: Laccases BD22449 and BD22865, identified and characterized in Examples 1-5 above were assayed for thermotolerance. Briefly, each laccases was tested at 50° C., 60° C. and 70° C. for 0-60 minutes wherein the residual activity on ABTS was measured. Supernatants from the Aspergillus cultures expressing BD22449 (SEQ ID NO:2) and BD22865 (SEQ ID NO:4) were isolated as described in Example 2. Supernatants were incubated at 50° C., 60° C. or 70° C. for 1 min, 5 min, 10 min, 30 min, and 60 min. For each time point, the oxidation of 2, 2′-azino-bis(3-ethylbenzthiazoline-6-sulfonic acid) (ABTS) by the laccase was measured using an OXYTHERM™ oxygen measurement instrument.

Series [5] can be described thus: delignification of wood pulp with laccase and mediator, handsheet brightness. Particulars: with Mediator 71 (50 mg per 1 gram softwood pulp), borate buffer pH 8, 22° C., then NaOH/H2O2 extraction at 75° C. As for the experimental part:
Laccases BD22449 and BD22865, identified and characterized in Examples 1-5 above were assayed for wood pulp delignification with Mediator 71. Briefly, 1 gram of softwood pulp was treated with 3 mL of BD22449 or BD22865 culture supernatant isolated as described in Example 2 with 50 mg of Mediator 71 at 5% consistency in borate buffer pH 8 at 22° C. Laccase/mediator treatment was followed by extraction stage with 2.5% NaOH, 2% H2O2 at 75° C. Handsheets were made out of the treated pulp and brightness increase due to the laccase/mediator treatment was measured using Brightmeter Micro S-5 (Technidyne Corp. New Albany, Ind., USA). Brightness increase obtained with BD22449 and BD22865 with Mediator 71 was −30% (data not shown).

Series [6] in a line: TEMPO oxidation, oxygen consumption (OXYTHERM). Format: biochemical. Particulars: 1 mM TEMPO, pH 8, 22° C., culture supernatant. On the procedure: Briefly, 50 μL of test culture supernatants isolated as described in Example 2 was incubated with 950 uL TEMPO (1 mM in Britton-Robinson Buffer at pH 8) at 22° C. in an OXYTHERM™ oxygen measurement instrument (Hansatech, England). Oxygen consumption was measured over time according to the manufacturer's instructions.

A short description of series [7]: HBT oxidation, oxygen consumption. Particulars: 1 mM HBT, pH 8, 22° C. Format: biochemical. As for the experimental part: (§1) The ability of BD22865 (SEQ ID NO: 4) to oxidize mediators with higher redox potentials such as violuric acid and 1-hydroxybenzotriazole (HBT) at pH 8 at room temperature was also tested. Briefly, 50 μL of BD22865 culture supernatant isolated as described in Example 2 was incubated with 950 μL violuric acid (1 mM in Britton-Robinson Buffer at pH 8) or HBT (1 mM in Britton-Robinson Buffer) at pH 8 at 22° C. in an OXYTHERM™ oxygen measurement instrument. Oxygen consumption was measured as described above. SEQ ID NO:4 (BD22865) was able to oxidize both violuric acid and HBT with oxygen consumption rates of 150 nmol/min/mg and 100 nmol/min/mg, respectively under the conditions described herein.

The nature of series [8]: violuric acid oxidation, oxygen consumption. Type of series: biochemical. The note with it: 1 mM violuric acid, pH 8, 22° C. On the procedure: as §1

As for `CNC(=O)N(O)c1cccc(C(F)(F)F)c1` [Mediator 71, 3-(3′-Trifluoromethylphenyl)-3-hydroxy-1-methylurea], the “ability to delignify pulp” value in series [1] is on record as “capable of delignifying pulp”. Moreover, the efficiency among mediators entry in series [1] (pH 5 and pH 8) is “most efficient”.

B1: BD22449: laccase from Cochiobolus heterostrophus, SEQ ID NO: 2, expressed in Aspergillus niger, tested as culture supernatant (protein, listed as Cochliobolus heterostrophus)
chain: MVSSISRVVTALGLLLPTVTSSVVPHKSLAPRTPEVPWKNTGLFSGHSKRQGYETACNHGPESRGCWIDDFNIDTDMDVEWPDTGKTVKYHLTITNTTGAPDGFERPMFLINGQYPGPTITADWGDVLEITVTNGLENNGTGIHWHGLRQLGTNEQDGVNGITECPIAPGDSKLYRFKATQYGTTWYHSHYSVQYGDGIVGPLIIKGPSTANYDIDLGAFPMTDWFHATTFTVNAAAVHANGPPTADNVLVNGSMTSSFGGKYAETILTPGKSHLLRLMNVGINNYLHVGLDGHQFQVISADFTPIEPFYTDSLVLAVGQRYEVIINATEAVGNYWLRVGTGGNCDGPNANAANIRSIFRYAGAPTEDPDTTGSLPSGCYDEDVVPYAKTTVPQEMPEQLSVGFNPNWTSDVTQNQGLVQWLVNGNPMAVDLEVPTLQSVLDGNVTYGNNRHVFAVDEKHQWQYWVIQQNSSNPPLPHPIHLHGHDFYVLAQVENAVWNGDISTLKTDNPIRRDTADLPAGGYLVLAFESDNPGAWLMHCHIPFHVAAGLGVQFLERESEIKAQDGYAEMHRTCANWQSWRYKYHPNGILFPGDSGLRRRN
As to B1, in series [2], the “specific activity, oxidation of Mediator 71” value was determined as 677 nmol/min/mg. The “pH of optimum oxidation of Mediator 71” value in series [3] was 8. Moreover, the “activity remaining after an hour at 60° C.” value in series [4] was “approximately 100%”. In series [5], the “brightness increase of handsheets” value was −30%. Also, the “TEMPO oxidation, oxygen consumption rate” value in series [6] is reported as “did not show TEMPO oxidation”.

B2: BD22865: laccase from Fusarium verticillioides, SEQ ID NO: 4, expressed in Aspergillus niger, tested as culture supernatant (protein)
chain: MALIERVWHACVSIVAWLTMWPTSPSTSYQHPLRPNHPHTHIEDPSPGFPIFHPPPGDHEFLCEYPEMTGFVQCSIPENRECWLRHPDGREFNIHTNYENFAPKGIMRHYTLNITESWYNADGQNFTEAKLFNGEYPGPWLEACWGDTFNITVINSMKRNGTSIHWHGIRQNQTMDMDGVNGITQCPIAPGDSFSYIFNTTQYGTSWYHSHYSVQYADGLQGPITIHGPQSAPYDATKRPLLMTDWSHESAFRLLFPGSQFSNKTILLNGAGNVSHYGYTPTLPIPDNYELYFNKTPTDKPTRPKRYLLRLINTSFDSTLVFSIDNHWLQIVTSDFVPIEPYFNTSVLIGIGQRYNVIVEANPLGGDVNEIPDDGNFWIRTWVADACGIAPGGEGYEKTGILRYNHSDKALPSSQPWVNISKACSDETYTSLRPKIPWYIGPAANAQNGERFNVTFDPNAKNTPEFQEEYPVATFGLQRPGQNFRPLQINYSDPVMFHLDEPRDTYPPKWVVIPEDYTEKEWVYFVLTIEGISARTGAHPIHLHGHDFALLQQEENQTYDPSRLNLKLDNPPRRDVVLLPRNGFVVIAFKADNPGIWLMHCHIARHASEGLAMQVLERQGDSNKLFPVGSPNMIEAERVCKVWETWMDGEKDFFEGDSGI
modifications: Fusarium verticillioides
As to B2, the “HBT oxidation, oxygen consumption rate” value in series [7] is 100 nmol/min/mg. For the same molecule, the “specific activity, oxidation of Mediator 71” value in series [2] is given as 1350 nmol/min/mg. Moreover, the “specific activity on Mediator 71 compared to BD22449” value in series [2] (pH 8) is “about twice the specific activity”. The “pH of optimum oxidation of Mediator 71” value in series [3] is recorded as 8. Moreover, the “activity remaining after an hour at 60° C.” value in series [4] was “about 40%”. In series [8], the “violuric acid oxidation, oxygen consumption rate” value amounted to 150 nmol/min/mg. For the same molecule, in series [5], the “brightness increase of handsheets” value was −30%. Also, the “TEMPO oxidation, oxygen consumption rate” value in series [6] was found to be 250 nmol/min/mg.
